The results in this text go back to patent publication US20250136678A1 (BIOSION, published 2025).

Residue numbers refer to the chain shown, from its start.

The target in experiment [1] is T1, human CLDN18.2 (NP_001002026.1) (human, UniProt P56856-2 1-261).
T1 construct: whole, on cells; KATO III cells also served as target cells in the ADCC assay; also called Claudin18.2; Claudin-18 splice variant 2
Briefly: FACS on 293T-CLDN18.2 cells, PE fluorescence; item A4; blank without antibody (E4) MFI 21.8.

In experiment [2] the target is T1, human CLDN18.2 (NP_001002026.1). The experiment in a line: FACS on 293T-CLDN18.2 cells, PE fluorescence; item D4; blank without antibody (E4) MFI 21.8.
Experiment [3] has the same target. The experiment in a line: FACS on 293T-CLDN18.2 cells, PE fluorescence; item B4; blank without antibody (E4) MFI 21.8.
Experiment [4] has the same target. Briefly: FACS on BAF3-CLDN18.2 cells, FITC fluorescence; item F7; blank without antibody (H7) MFI 178.
Experiment [5] addresses human CLDN18.1 (Uniprot No:P56856) (human) (UniProt P56856). Briefly: FACS on BAF3-CLDN18.1 cells, FITC fluorescence; item B1; blank without antibody (C1) MFI 242.
The target of experiment [6] is T1, human CLDN18.2 (NP_001002026.1). The experiment in a line: FACS on BAF3-CLDN18.2 cells, FITC fluorescence; item G7; blank without antibody (H7) MFI 178.
Experiment [7] has as its target human CLDN18.1 (Uniprot No:P56856) (human) (UniProt P56856). Briefly: FACS on BAF3-CLDN18.1 cells, FITC fluorescence; item A1; blank without antibody (C1) MFI 242.
The target of experiment [8] is T1, human CLDN18.2 (NP_001002026.1). Briefly: cell-based binding FACS on BAF3-CLDN18.2 cells, MFI against Con of mAb (nM).
Protocol: (§1) The BAF3-CLDN18.2, BAF3-CLDN18.1 and BAF3 cells were harvested, washed twice and re-suspended in phosphate buffered saline (PBS) containing 2% v/v Fetal Bovine Serum (FACS buffer), BAF3 cells were used here as blank control. The cells, 1×10⁵ per well, were incubated in 96 well-plates with 100 μl serially diluted antibodies or controls (starting from 10 μg/mL, 5-fold serial dilution) in FACS buffer for 50 minutes on ice. […] Following an incubation of 50 minutes at 4° C. in dark, cells were washed three times and re-suspended in FACS buffer. Fluorescence was measured using a Becton Dickinson FACS Canto II-HTS equipment, and the MFI (mean fluorescence intensity) was plotted against antibody concentration. Data was analyzed using Graphpad Prism and EC₅₀ values were reported.
Experiment [9] shares this target. Briefly: cell-based binding FACS on BAF3-CLDN18.2 cells; y axis unlabelled, nM is the unit of the x axis; the three chimeric curves run close together and reach about 7200-7700 at the last point without a clear plateau.
Protocol: as §1
For experiment [10] the target is unchanged. The experiment in a line: cell-based binding FACS on BAF3-CLDN18.2 cells, MFI against Con of mAb, nM is the unit of the x axis; curve lies in a bundle of overlapping curves reaching MFI about 5000-6000.
Protocol: as §1
Experiment [11] shares this target. The experiment in a line: cell-based binding FACS on BAF3-CLDN18.2 cells, MFI against Con of mAb, nM is the unit of the x axis; the curve levels off near MFI 600.
Protocol: as §1
Experiment [12] has the same target. The experiment in a line: cell-based binding FACS on BAF3-CLDN18.2 cells, MFI against Con of mAb, nM is the unit of the x axis; low curve (open down-triangles) reaching only MFI about 400-500.
Protocol: as §1
The target is the same in experiment [13]. Briefly: cell-based blocking FACS on BAF3-CLDN18.2 cells; unlabeled Zolbetuximab against biotin labeled Zolbetuximab, SA-PE detection, nM is the unit of the x axis; signal falls only from about 870 to about 600 at the last point, no lower plateau is reached.
Protocol: The anti-CLDN18.2 antibodies of the disclosure, and the controls were diluted with FACS buffer starting from 10 μg/mL with 5-fold serial dilution. BAF3-CLDN18.2 cells were harvested from cell culture flasks at the log phase, washed twice and re-suspended in PBS containing 2% v/v Fetal Bovine Serum (FACS buffer). […] Then the cells were washed twice with FACS buffer, added with 100 μl/well SA-PE (1:200 dilution in FACS buffer, Cat #:016-110-084, Jackson Immunoresearch), and incubated for 40 minutes at 4° C. in dark. Cells were washed twice and re-suspended in FACS buffer. Fluorescence was measured using a Becton Dickinson FACS Canto II-HTS equipment. Data was analyzed using Graphpad Prism and IC₅₀ values were reported.
The target is the same in experiment [14]. Briefly: cell-based binding FACS on BAF3-CLDN18.2 cells, MFI against Con of mAb, nM is the unit of the x axis; low curve reaching only MFI about 300-400 at the last point.
Protocol: as §1
Experiment [15] has the same target. Briefly: cell-based binding FACS on BAF3-CLDN18.2 cells; y axis unlabelled, nM is the unit of the x axis; the curve reaches only about 800 at the last point.
Protocol: as §1

hIgG (antibody) displayed an MFI at 10000 ng/ml in experiment [1] of 26.9. Further, in [2], the MFI at 156.25 ng/ml came out at 21.4. Moreover, the MFI at 2500 ng/ml in experiment [3] amounted to 28.7.

Consider “anti-CLDN18 antibody (Cat #ab203563, Abeam)”, for which the MFI at 1000 ng/ml in experiment [4] amounted to 3340; in experiment [7], 5340. For the same molecule, the values for the MFI at 500 ng/ml in [5] and in experiment [6] were 4020 and 3020, respectively.

B1: huE1B1B8C7-V8 (antibody, human IgG1, kappa, V domains shown)
VH: QVQLVQSGAEVKKPGASVKVSCKASGYSFTNYWVNWVRQAPGQGLEWIGMVHPSGSETRLNQQFKDKATLTRDTSTSTVYMELSSLRSEDTAVYYCARVWSGNAFDYWGQGTLVTVSS
VL: DIVMTQSPDSLAVSLGERATINCLSSQSLLASGNQRNYLTWYQQKPGQPPKLLIYWASTRDSGVPDRFTGSGSGVDFTLTISSVQAEDVAVYYCQNGFSFPFTFGQGTKLEIKR
notes: Humanized, human IgG1/kappa; X positions as numbered in CLM-00003 and CLM-00004
Take B1: the binding result in experiment [8] is listed as “binds”.

B2: chE1B1B8C7-V2 (antibody, human IgG1, kappa, V domains shown)
VH: QVQLQQPGAELVRPGTSVKLSCKASGYSFTNYWVNWVKQRPGQGLEWIGMVHPSGSETRLNQQFKDKATLTVDKSSNTAYMQLNRPTSEDSAVYYCARVWSGNAFDYWGQGTTLIVSS
VL: DIVMTQSPSSLTVTAGEKVTLNCLSSQSLLNAGNQRNYLTWYQQKPGQPPKLLIYWASTRDSGVPDRFTGGGSGVDFTLTIYRVQAEDLAFYYCQNGFSFPFTFGSGTKLEMKR
notes: Chimeric human IgG1/kappa; also called chimeric antibody chE1B1B8C7-V2
For orientation: EC50 means the concentration needed to bring the measured effect to its halfway point. As for B2, a half-maximal effect in experiment [9] (EC50) was put at 3.91 nM.

B3: chE1B1B8C7-V3 (antibody, human IgG1, kappa, V domains shown)
VH: B2 VH
VL: B2 VL with A32E
notes: Chimeric human IgG1/kappa; also called chimeric antibody chE1B1B8C7-V3
With B3, the EC50 in experiment [9] is 7.79 nM.

B4: chE1B1B8C7-V1 (antibody, human IgG1, kappa, V domains shown)
VH: B2 VH
VL: B2 VL with N31A, A32S
notes: Chimeric human IgG1/kappa; also called chimeric antibody chE1B1B8C7-V1
In the case of B4, the EC50 in [9] worked out at 6.19 nM; in [10], 3.08 nM.

B5: Zolbetuximab (antibody, human IgG1, kappa, V domains shown)
VH: QVQLQQPGAELVRPGASVKLSCKASGYTFTSYWINWVKQRPGQGLEWIGNIYPSDSYTNYNQKFKDKATLTVDKSSSTAYMQLSSPTSEDSAVYYCTRSWRGNSFDYWGQGTTLTVSS
VL: DIVMTQSPSSLTVTAGEKVTMSCKSSQSLLNSGNQKNYLTWYQQKPGQPPKLLIYWASTRESGVPDRFTGSGSGTDFTLTISSVQAEDLAVYYCQNDYSYPFTFGSGTKLEIKR
notes: also called IMAB362; Benchmark
As a reminder, the IC50 is the concentration at which inhibition is half-maximal. Read a high IC50 as a need for much substance. Take B5: the EC50 came to 2.44 nM in experiment [11], 4.67 nM in [12], 5.48 nM in experiment [14] and 11 nM in experiment [15]. Further, the midpoint of inhibition in [13], the IC50, lay at 17.3 nM.
